Results on eight molecules are retold here after PMC3314614, “The Tandem CARDs of NOD2: Intramolecular Interactions and Recognition of RIP2” (PLoS ONE, 2012).

One may read the Kd as the concentration at which binding is half-saturated. A word on the stoichiometry N: it is the number of molecules, sites or subunits per partner or assembly.

Assay [1] addresses NOD2-CARDb (isolated) (human) (UniProt Q9HC29). The experiment in a line: ITC; CARDa in the syringe, CARDb in the cell; 25°C; 50 mM Tris-HCl, 100 mM NaCl, 2 mM DTT, pH 7.5; one-site model. Background: In ITC the heat of successive injections is recorded.
A further assay deals with Pop1 PYD (Homo sapiens) (UniProt Q8WXC3). Conditions: cited from earlier work.
Sequence of Pop1 PYD (Homo sapiens) (Q8WXC3 whole entry): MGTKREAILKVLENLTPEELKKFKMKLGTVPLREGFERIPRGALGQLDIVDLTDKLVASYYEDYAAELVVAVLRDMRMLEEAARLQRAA
Assay [2] concerns the target caspase-1 CARD (Homo sapiens) (UniProt P29466). Conditions: cited from earlier work.
Assay [3] has as its target NOD2-CARDb (isolated) (human) (UniProt Q9HC29). Put plainly: AUC; sedimentation velocity; individual samples and a 1:1 mixture of CARDa and CARDb; optical density 0.5 at 280 nm; SedFit.
Assay [4] has the same target. Put plainly: ITC; CARDa in the syringe, CARDb in the cell; 30°C; 50 mM Tris-HCl, 250 mM NaCl, 2 mM DTT, pH 7.5.
Assay [5] shares this target. Put plainly: ITC; CARDa in the syringe, CARDb in the cell; 25°C; 50 mM Tris-HCl, 100 mM NaCl, 2 mM DTT, pH 7.5; one-site model. This is another data set of the same source.
The target is the same in assay [6]. Put plainly: ITC; CARDa in the syringe, CARDb in the cell; 30°C; 50 mM Tris-HCl, 100 mM NaCl, 2 mM DTT, pH 7.5; one-site model.
Assay [7] shares this target. The experiment in a line: ITC; CARDa in the syringe, CARDb in the cell; 30°C; 50 mM Tris-HCl, 500 mM NaCl, 2 mM DTT, pH 7.5.
The target is the same in assay [8]. Put plainly: ITC; CARDa in the syringe, CARDb in the cell; 18°C; 50 mM Tris-HCl, 100 mM NaCl, 2 mM DTT, pH 7.5; one-site model.
For assay [9] the target is unchanged. The experiment in a line: ITC; CARDa in the syringe, CARDb in the cell; 30°C; 50 mM Tris-HCl, 50 mM NaCl, 2 mM DTT, pH 7.5.
Assay [10] shares this target. The experiment in a line: ITC; CARDa in the syringe, CARDb in the cell; 30°C; 50 mM Tris-HCl, 1000 mM NaCl, 2 mM DTT, pH 7.5.
Assay [11] has as its target Tube DD (Drosophila melanogaster) (UniProt P22812). Conditions: cited from earlier work.
A further assay has as its target T1, procaspase-9 CARD (UniProt P55211 1-92).
T1 construct: procaspase-9, CARD
T1 sequence (looked up): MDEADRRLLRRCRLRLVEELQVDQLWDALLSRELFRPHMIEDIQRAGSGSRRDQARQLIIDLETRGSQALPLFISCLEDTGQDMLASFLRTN
Put plainly: ITC; data not shown; at different temperatures. Conditions: both partners purified.

Sequence of Tube DD (Drosophila melanogaster) (P22812 27-152): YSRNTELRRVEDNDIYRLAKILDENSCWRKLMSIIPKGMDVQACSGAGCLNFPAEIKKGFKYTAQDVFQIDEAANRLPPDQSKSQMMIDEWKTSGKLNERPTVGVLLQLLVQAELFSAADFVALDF
Sequence of caspase-1 CARD (Homo sapiens) (P29466 1-94): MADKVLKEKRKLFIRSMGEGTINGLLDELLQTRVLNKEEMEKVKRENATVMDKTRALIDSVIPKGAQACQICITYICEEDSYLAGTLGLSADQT

Take “NOD2-CARDa E72K (isolated) (from UniProt Q9HC29 28-119) (domain or fragment)”: in assay [1], the Kd amounted to 330 nM, the dH is -5.2 kcal/mol and the stoichiometry N is 0.81.
Turning to ASC PYD (from UniProt Q9ULZ3), in the assay with Pop1 PYD (Homo sapiens), the Kd was 4000 nM.
For “NOD2-CARDa E69K (isolated) (from UniProt Q9HC29 28-119) (domain or fragment)”, in [1], the Kd is 720 nM, the dH is -3.8 kcal/mol and the stoichiometry N came to 0.94.
Consider RIP2 CARD (from UniProt O43353), for which, in assay [2], the Kd is 1400 nM.
Take “NOD2-CARDa R86A (isolated) (from UniProt Q9HC29 28-119) (domain or fragment)”: in [1], the Kd was 810 nM, the dH is -4.8 kcal/mol and the stoichiometry N came to 0.91.
On to “NOD2-CARDa (isolated, wild type) (from UniProt Q9HC29 28-119) (domain or fragment)”, for which the stoichiometry N is 1 in assay [3]; 0.99 in assay [4]; 1.03 in [1]; 0.91 in assay [6]; 0.85 in [7]; 0.84 in assay [8]. Besides, the stoichiometry N amounted to 0.61 in [9] and 0.78 in assay [10]. Further, the Kd came out at 2990 nM in assay [4]; 880 nM in assay [1]; 1100 nM in [5]; 1410 nM in [6]; 6250 nM in [7]; 1080 nM in assay [8]. Moreover, the Kd in [9] was 1090 nM; in [10], 7140 nM. The dH in [4] was -5.5 kcal/mol; in assay [1], -4.7 kcal/mol; in assay [6] it was -7.4 kcal/mol; in assay [7], -4.8 kcal/mol; in assay [8] it was -2 kcal/mol; in assay [9] it was -9 kcal/mol. In [10], this molecule returned a dH of -2.6 kcal/mol.
On to Pelle DD (from UniProt Q05652), for which, in [11], the Kd was 500 nM.

B1: Apaf-1 CARD (domain or fragment, UniProt O14727 1-90, looked up)
chain: MDAKARNCLLQHREALEKDIKTSYIMDHMISDGFLTISEEEKVRNEPTQQQRAAMLIKMILKKDNDSYVSFYNALLHEGYKDLAALLHDG
notes: Apaf-1, CARD
B1: the dissociation constant Kd with procaspase-9 CARD was 1000 to 4000 nM.
